27 molecules from patent US20260167959A1, “APTAZYME-BASED REGULATABLE GENE EXPRESSION SYSTEMS” (REJUVENATE BIO INC, priority 2022, published 2026) can be followed below.

Residue numbers refer to the chain shown, from its start.

To fix the notation:
B1: RA392 (nucleic acid)
DNA: GCGCGTCCTGGATTCGCGGACGGAATACCAGCATCGTCTTGATGCCCTTGGAAGTCCGAACGCGTACATCCAGCTGACGAGTCCCAAATAGGACGAAACGCGC
modifications: expressed or natural sequence
B2: RA377 (nucleic acid)
DNA: GCGCGTCCTGGATTCGCGGAAACGCGTACATCCAGCTGACGAGTCCCAAATAGGACGGAGAATACCAGCATCGTCTTGATGCCCTTGGAAGTCTCAAACGCGC
modifications: expressed or natural sequence
B3: RA400 (nucleic acid)
DNA: GCGCGTCCTGGATTCGCGGAACCGGAATACCAGCATCGTCTTGATGCCCTTGGAAGTCCGGACGCGTACATCCAGCTGACGAGTCCCAAATAGGACGAAACGCGC
modifications: expressed or natural sequence
B4: RA385 (nucleic acid)
DNA: GCGCGTCCTGGATCCGGAATACCAGCATCGTCTTGATGCCCTTGGAAGTCCGGTCGCGGAAACGCGTACATCCAGCTGACGAGTCCCAAATAGGACGAAACGCGC
modifications: expressed or natural sequence
B5: RA384 (nucleic acid)
DNA: GCGCGTCCTGGATTCGCGGAAACGCGTACATCCAGCTGACGAGTCGAGAATACCAGCATCGTCTTGATGCCCTTGGAAGTCTCCCAAATAGGACGAAACGCGC
modifications: expressed or natural sequence
B6: RA393 (nucleic acid)
DNA: GCGCGTCCTGGATTCGCGGAAACGCGTACATCCAGCTGACGAGTCCCAAATAGGCGGAATACCAGCATCGTCTTGATGCCCTTGGAAGTCCGACGAAACGCGC
modifications: expressed or natural sequence
B7: RA391 (nucleic acid)
DNA: GCGCGTCCTGGATTCGCGGAAACGCGTACATCCAGCTGACGAGTCCCAGAGAATACCAGCATCGTCTTGATGCCCTTGGAAGTCTCAATAGGACGAAACGCGC
modifications: expressed or natural sequence
B8: RA394 (nucleic acid)
DNA: GCGCGTCCTGGATTCGCAGAATACCAGCATCGTCTTGATGCCCTTGGAAGTCTGGAAACGCGTACATCCAGCTGACGAGTCCCAAATAGGACGAAACGCGC
modifications: expressed or natural sequence
B9: RA378 (nucleic acid)
DNA: GCGCGTCCTGGATTCGCGGAAACGCGTACATCCCGGAATACCAGCATCGTCTTGATGCCCTTGGAAGTCCGGCAGCTGACGAGTCCCAAATAGGACGAAACGCGC
modifications: expressed or natural sequence
B10: RA379 (nucleic acid)
DNA: GCGCGTCCTGGATTCGCGGAAACGCGGAATACCAGCATCGTCTTGATGCCCTTGGAAGTCCGTACATCCAGCTGACGAGTCCCAAATAGGACGAAACGCGC
modifications: expressed or natural sequence
B11: RA386 (nucleic acid)
DNA: GCGCGTCCTGGATTCGCGGAAACGCGTACATCCAGCTGACGGGAATACCAGCATCGTCTTGATGCCCTTGGAAGTCCAGTCCCAAATAGGACGAAACGCGC
modifications: expressed or natural sequence
B12: RA398 (nucleic acid)
DNA: GCGCGTCCTGGATTCGCGGACGAGAATACCAGCATCGTCTTGATGCCCTTGGAAGTCTCGAACGCGTACATCCAGCTGACGAGTCCCAAATAGGACGAAACGCGC
modifications: expressed or natural sequence
B13: RA390 (nucleic acid)
DNA: GCGCGTCCGGAATACCAGCATCGTCTTGATGCCCTTGGAAGTCCGGCCTGGATTCGCGGAAACGCGTACATCCAGCTGACGAGTCCCAAATAGGACGAAACGCGC
modifications: expressed or natural sequence
B14: RA395 (nucleic acid)
DNA: GCGCGTCCTGGATTCGCGGAAACGCGTACATCCAGCTGACGAGTCCCAAATAGGAGAATACCAGCATCGTCTTGATGCCCTTGGAAGTCTCGACGAAACGCGC
modifications: expressed or natural sequence
B15: RA388 (nucleic acid)
DNA: GCGCGTCCTGAGTGATACCAGCATCGTCTTGATGCCCTTGGCAGCACTGATTCGCGGAAACGCGTACATCCAGCTGACGAGTCCCAAATAGGACGAAACGCGC
modifications: expressed or natural sequence
B16: RA380 (nucleic acid)
DNA: GCGCGTCCTGGATTCGCGGAAACGCCGAGAATACCAGCATCGTCTTGATGCCCTTGGAAGTCTCGGTACATCCAGCTGACGAGTCCCAAATAGGACGAAACGCGC
modifications: expressed or natural sequence
B17: RA382 (nucleic acid)
DNA: GCGCGTCCTGGATTCGCGGAAACGCGTACATCCAGCTGACGCCGGAATACCAGCATCGTCTTGATGCCCTTGGAAGTCCGGAGTCCCAAATAGGACGAAACGCGC
modifications: expressed or natural sequence
B18: RA383 (nucleic acid)
DNA: CGGAATACCAGCATCGTCTTGATGCCCTTGGAAGTCCGGCGCGTCCTGGATTCGCGGAAACGCGTACATCCAGCTGACGAGTCCCAAATAGGACGAAACGCGC
modifications: expressed or natural sequence
B19: RA389 (nucleic acid)
DNA: GCGCGTCCTGGATTCGCGGAAACGCGTACCGGAATACCAGCATCGTCTTGATGCCCTTGGAAGTCCGATCCAGCTGACGAGTCCCAAATAGGACGAAACGCGC
modifications: expressed or natural sequence
B20: RA396 (nucleic acid)
DNA: GCGCGTCCTGGATTCGCGGAAACGCGTACATCCAGCTGCGGAATACCAGCATCGTCTTGATGCCCTTGGAAGTCCGACGAGTCCCAAATAGGACGAAACGCGC
modifications: expressed or natural sequence
B21: RA381 (nucleic acid)
DNA: GCGCGTCCTGGATTCGCGGAAACGCGTACATCCAGCTGACGAGTCCCAAATAGGACGAAACGCGCCCGGAATACCAGCATCGTCTTGATGCCCTTGGAAGTCCGG
modifications: expressed or natural sequence
B22: RA387 (nucleic acid)
DNA: GCGCGTCCTGGATTCGCGGAAACGCGCCGGAATACCAGCATCGTCTTGATGCCCTTGGAAGTCCGGTACATCCAGCTGACGAGTCCCAAATAGGACGAAACGCGC
modifications: expressed or natural sequence
B23: RA399 (nucleic acid)
DNA: GCGCGTCCTGGATTCGCGGAAACGCGTACATCCACGAGAATACCAGCATCGTCTTGATGCCCTTGGAAGTCTCGGCTGACGAGTCCCAAATAGGACGAAACGCGC
modifications: expressed or natural sequence
B24: RA397 (nucleic acid)
DNA: GCGCGTCCTGGATTCGCGGAAACGCGTACATCCAGCTGACGAGTCCCAAATAGGACGAAACGCGCCGGAATACCAGCATCGTCTTGATGCCCTTGGAAGTCCG
modifications: expressed or natural sequence
B25: RA037 (nucleic acid)
DNA: GCGCGTCCTGGATTCGCCGGAATACCAGCATCGTCTTGATGCCCTTGGAAGTCCGGGAAACGCGTACATCCAGCTGACGAGTCCCAAATAGGACGAAACGCGC
modifications: expressed or natural sequence
B26: RA038 (nucleic acid)
DNA: GCGCGTCCTGGATTCGCGGAAACGCGTACATCAGAATACCAGCATCGTCTTGATGCCCTTGGAAGTCTCAGCTGACGAGTCCCAAATAGGACGAAACGCGC
modifications: expressed or natural sequence
B27: RA039 (nucleic acid)
DNA: B26 DNA with A33G, T68C
modifications: expressed or natural sequence

The test system of the first data set is Renilla luciferase RNA. Nature of the data set: Barcoded aptazyme variant library screen: un-cleaved Renilla luciferase RNA by barcode read counts, HEK293-T cells. Type of data set: cell-based. As to conditions: un-cleaved Renilla luciferase RNA by barcode read counts; with 1 mM theophylline (ON) over without theophylline (OFF); HEK293-T cells; triplicate. A digest of the protocol: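 Aptazyme variants (seven theophylline aptamers inserted after each T3H48 ribozyme nucleotide, 9-nt barcoded) cloned into the 3′ UTR of Renilla luciferase in psiCHECK-2; cells cultured ± theophylline, in triplicate. RNA and DNA barcodes amplified and sequenced; normalized read counts gave un-cleaved RNA fraction and ON/OFF fold-change.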
On to B1, for which the “Fold change in RNA expression between the ON state and the OFF state” value (“Fold change” below) worked out at 0.7.
For the molecule B2, the “Fold change” value is 0.8.
As for B3, the “Fold change” value is recorded as 0.7.
On the same count and under the same terms, the result for B4 reads 0.8; that for B5, 0.8.
As to B6, the “Fold change” value is 0.7.
In the case of B7, the “Fold change” value was found to be 0.7.
The same measure, in the same setting: the result for B8 reads 0.7.
In the case of B9, the “Fold change” value is 0.8.
On to B10, for which the “Fold change” value was found to be 0.8.
Consider B11, for which the “Fold change” value turned out to be 0.8.
Same read-out and setting: to B12 belongs 0.7.
Turning to B13, the “Fold change” value amounted to 0.7.
As to B14, the “Fold change” value is 0.7.
B15: the “Fold change” value came out at 0.8.
For B16, the “Fold change” value is 0.8.
B17: the “Fold change” value came to 0.8.
For B18, the “Fold change” value was 0.8.
As to B19, the “Fold change” value was found to be 0.8.
On to B20, for which the “Fold change” value is 0.7.
Turning to B21, the “Fold change” value is recorded as 0.8.
With B22, the “Fold change” value came to 0.8.
B23: the “Fold change” value worked out at 0.7.
For B24, the “Fold change” value was found to be 0.7.

Still in this data set, the particulars now being: un-cleaved Renilla luciferase RNA, HEK293-T cells cultured with 1 mM theophylline (ON) over without theophylline (OFF); barcode read counts, triplicate.
As to B25, the “Fold change” value was 2.2 fold.
For B26, the “Fold change” value was 2.2 fold.
In the case of B27, the “Fold change” value is listed as 2.2 fold.
